The text below walks through data of a protein production outcome set (Wang et al. 2014).

This series can be described thus: label from the status in PepcDB records.
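Further: failed if final PepcDB status was selected cloned or expressed and not failed if soluble or beyond.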

In the case of “MNLRGILPFAHDTLRKVVRSGDYVVDATCGNGHDTLLLAELVGINGHVLGFDIQQLAIDATNTRLENAGVSSQVELVCASHARIPEYTSKPVRAAIFNLGYLPGGDKEITTTADSTLESIGHLMELLEVGGVIILVIYHGHPAGKQEKDAVMTFCEAIPQQDFHVLSYNFINQKNDAPFVIIIEKRKPRQSLEHHHHHH”, the protein production result is “not failed”.
To “MNLSFKIFDISNTQRSKAKKVQGKKYEIFLNENEHSLITPKVSFKEILRYYYLYPKNAIPSFKLPFFKPDLSGFSTPHITWLGHSSLFISFKEYKILIDPIFNTHASPISFINKAFKNAPVYNINDFNEIFAVIITHSHFDHLDAKSVKALKDKAKFFITPLKVGNYLKSYGVSEKKIIELDWWSGIEFGDLKIMATPAQHSSSRGDGKNKTLWASFVMEFLSVDKRVFFSADGGYFTHFKKIGEYFGSFDLACLESGQFNIAWPYSHSFPEQILKEAKDLNAKAVMPIHWGRFLAGTHAWNEVVKFLYENLDLPLITPKMGEAYEVGAKFKQDFWWKEELEHHHHHH” belongs “failed”; to “MNLTELMERIPHLREILNIVREAFKDYDDPAHDISHTFRVMENASEIASREKCDLQKAIIAALLHDIKRPHEALTGVDHAESGAEYASGLLPTMGFDISFVAEVSKAIRSHRYSGGLTPTSLTGKILQDADRLDAIGAVAIARVFSYSGKTGTPLHSLQFSPRSSYSGNSRSSINHFHEKILKIRPETFWTETARKMAEDRYSFVVEFVQRFLAEWGQI”, “not failed”.
In the case of “MNMIDQLNITDFQVFTDENSDKSVSKIYKFSSKMILSDFHAQPHGFLNGGASLALAEITAGMASNAIGSSQYFALGQSISANHLNSKKCEGFVNACGLLLKNGKRNHVWEIKITDENETLISQITVVNALVPQKNSDKLEHHHHHH”, the protein production result is given as “failed”.
To “MNMLALTILLPLIGFVLLAFSRGRWSENLSATVGMGSVGLAALVTAYVGVDFFANGKQAVSVPLWTWMSVGDFNIGFNLVLDGLSLTMLSVVTGVGFLIHMFASWYMRGEEGYSRFFAYTNLFIASMVVLVLADNLLLMYLGWEGVGLCSYLLIGFYYTDPKNGAAAMKAFVVTRVGDVFLAFALFILYNELGTLNFREMVELAPQHFANGSTTLQWATLMLLGGAVGKSAQLPLQTWLADAMAGPTPVSALIHAATMVTAGVYLIARTHGLFLMTPEVLHLVGIVGAVTLVLAGFAALVQTDIKRVLAYSTMSQIGYMFLALGVQAWDAAIFHLMTHAFFKALLFLSSGSVILACHHEQNIFKMGGLRKSIPLVYVCFLVGGAALSALPLITAGFFSKDEILAGAMANGHINLMVAGLVGAFMTSLYTFRMIFIVFHGKEQIHAHAGKGITHHLPLIVLLVLSTFVGALIVPPLEGVLPQTTELAHGSVMTLEIASGIIAIAGILIAAWLWLGKRTLVTSIANSAPGRFFGTWWFHAWGFDWLYDKVFVKPFLGIAWLLKRDPLNSLMNIPAILSRFAGKGLLVSENGYLRWYVASMSIGAVVVLALLMVLR” belongs “failed”; to “MNMSTDRIERRIVLHAPRSRVWRALTNADEFGAWFRVDLAGQAFEAGRRVEGRITYPGYEHLVLQMRIERIEPEHHFSYRWHPAAVDPAVDYSQEAPTLVVFELADAEGGPLLTVVESGFDALPVERRADAFRMNSGGWDEQMTNIAAHVDAR”, “failed”; to “MNMTAGRRAALTREQASSETMTMESSAYGEAVRAVRTGEISADEAANQLIDRMTEGEVLGLLDGDSSRWVLPFIPALLDRRPFVAGAVSRLGIPGIRFSDGGRGVVIGASTAFPVTIARAATWDPSLEERVGIAIGLETRARGANYSASVCVNLLRHPAWGRAQECYGEDPVLTGRMGSALTRGVRLHVMACVKHFALNSMENERFEVDVAVDEHALHEVYLPHFKAVVDAGADSVMSSYNRVRGEYMDVNRALLTDVLRREWGFSGFVTSDWVFGTHDAVASLEAGMDVEMPLRLLRARELPAALRNGVLARATVLQSARRVLRTCVEHSANRELAAPTRAVIASPAHRALAHQVAAESIVMLKNETVGAAPLLPLAPTIQHLAVIGRLAAQGNLGDHGSSRVRPPSTVSPLQGLREALPGVLISTTTGRDERRAAAMAAAAEMAIVVVGLDQHDEGESVVTGGVDVGVIGRTFGSGPLRQVLIGLAHLASRFVRGGDRSSLNLRPSDERLIQAVVAANPRTVVVLVSGSAILTEAWRDRVPALLLAWYGGMEGGRALASVLTGSEEPGGRLPFVLPTDAAHLPFFDSAAKSVVYDAQWGQRRLDGEGHRPAYPFGFGLSYTTLEHRLIDHTLDSSGGNANVHVTNKGHRKGSTVVQVYAADVSLRRPVAQLLGFRKVTLQPGAETTVRVVLDAGPTLQRDSTTRRWSPRSGVWALQASQHSPDSWENAVRLRRTEGLIDQEGTSDVKPA”, “failed”.
To “MNNDISIAALIVTYNPDKRLIESLTKLEKLVDFVVIVDNNSNKSPVLDYISNNIFNDRYLIQLEDNLGIAYALNTGIKYILEKGHYDYILTLDQDTVPLIDDIKELIKRANSIYSNIGIIALISKMDPKIPEFTDVKFPMTSGNIVKSEIFKYIKYREEFFIDSVDFDFDYNVRMHGYRIIQYNYRAIDHNVGITKNGFPYESSERLYYIIRNSTVLFGENKITFRMYIFQAFYWITMGLIHWEILKTAKSSVKGFKDGVNKKLGKNNDI” belongs “failed”; to “MNNENPLVSILIPVYNREKYIGEAIESAINQTYKNIEVIIVDNCSTDNTWKILQDYQCKDKRIHIFQNEKNLGPVYNWIECFKRAKGVYSKILWSDDWMSLDFVENALSAFNEDISFVISAQQIITNDKEILSNVAYLKDRYSQREYLENALLYNKYNFPLSPGCAIFRTKDVLNNFIVDIPNSDSLDSKKNGAGNDLYLFLKIALHYPYIGVVANSVSYFRAHKESFSVASDLNLYYEWAKVDFINSELRDSYFISAKKMLLFKFSVKNKHFRNICKSLSYNKYILQAVFRLLLIRILEHHHHHH”, “failed”.
To “MNNFKLIVRKWYIPVLIISLITLVASAYALYWATIPETKETQISIRHYSALAYFSGGAEVKKDNPIWANGSFVTLPVYSYSLTPEYSGEFYFTTAPRGDITIETEAKIVYFYEVSDAPVWEKVYYAASNTSRGEIKTNFKINVTDLKSKINEAQNSFGVYLGKTGARIDVSVHYYGKITGKDVDETLSFKIPIDVQSTYYSFSTLNETRDFEMPSTRVVEVQKPLHMKVIPAALCTVSIIFAGLSVVYRTKYSDVSSLEREIERVSWEKKLKEVSFARMPETNLEMVEVERFEDISKAAEETFEHLFYDREKGVFFFIHGGVLYYCREK” belongs “failed”.
For “MNNFVSELQSYFASKYPFLSANIPRQQQLLGDSWSQEFDGELIKHFGTIEELRTAADGYAKFAMDSLLLTAKFQKTKDYDNKTYAECASEVYQSESYMHSLYLPGILLSHYLWKHHYAMYQFYKSIVVPVLPKSGLFIDVGVGTGFYSRNLLRDSQMTGIGCDMSPHSLSYTRSTLSKFGTVDKYSFCLCDYYHFNQYFQSTADFILSIEVLEHLEDPMKMLESLYKSLKPGGLGLISAAVNAPNADHIYLYRSCEDVRHQLIKAGFEIRHDTCDEAYEARTIGEVVPVNYGALVCKPS”, the protein production entry is listed as “failed”.
To “MNNGQPLKHRGVTVEDLLRLRSVRDPHYASDGTHGVFVQKSIDEEKQYCSHLYIWTEDGAVRQWTFGRWRDTRPRFSPDSKTIAFLSDRSGHTQLWLLPADGGEARQLTFFKNGVRDYVWAPDGTFLIALTTLGDNETIDDREEPKKKETKPADLKPRVVERLYYKSDASGFLDGKQAVLVCIDATSGKTEALTSREEEISSFAISPNGRTLAFMANRNEDPDTTFTRDIVLLDLESKAETNLTKGSGTFTSLAWSPDGTKLAAIGHDLAFLGATIHQLYVFEPERGTKRVLTADWDVHLGDAMVGDTHADAKGPGPIWKRDGTGLYVTASERGRVNVYFVPLDGPIVPIIEGDFHVYGLAIHPNEQQAVAAISEPTMIGDLYTISLESGTKTRLTRVNEALENEVTFADAEPFTYQSTDGWDIQGWIMKPPRLGDGEKAPLVVEIHGGPHTMYGFTFFHEFQLLASSGYVVLFTNPRGSHGYGQSFVNAVRGDYGGMDYEDIMAGVDAAIKQFAFIDETRLGVTGGSYGGFMTNWIVGHTNRFRAAVTQRSISNWLSFAGVSDIGYFFTKWEVGCDVWEDAERLWHHSPLKYVKNVRTPLLILHSEHDYRCPIEQAEQLFIALKQLGQETKLVRFPDANHDLSRTGNPALRLERLRQIVGWFDHYLKGPLD” belongs “failed”; to “MNNLKKYTLVAVFVFLTAVCFQHPGITSAATTITIDPDATYQTIEGWGASICWWGNQIGRWSPDNRNRLIEKIVSPTDGLGYNIFRYNIGGGDNPGHNHMRDYADIQGYQNADRSWNWNADAAQRAVLTRLIERGRYYGSEIILEAFSNSPPYWMTKSGCASGTSDGSNNLRDDCYDDFADYLTEVVKHFRDAWGITFRTLEPMNEPNSDWWKAGGRQEGCSFSYANQQRIIKEVGEKLKAKGLTGTTVSAADEASIDTALEGLQSYDATTLSYMSQLNVHSYFGSKRAQLRDLAKSKGLRIWQSESGPLSFNGDMADSCIMLSKRIVTDLKELQCVAWLDWQIIDGGNWGSIYVDDASQTFTLTEKFYMHANYSRFIRPGYTIIGANNEKTIAAISPDKKKLVIVATNDNKSSSANYTFNLTRFSGVNSTVEVYRTSPSLSLAKSIITASNKIVSDTLPPYSINTYVITLDGGVESVPAVGLQSYNYPNRYVRHADFDARIDENVTPLEDSQWRLVPGLANSSEGYVSIQSVNYPGYYLRHWDYDFRLDKNDGTTIFAEDATFKLVPGLADPSCVSFQSYNYPDRYIRHYGYLLKLERISTDLDRQDATFLIISDDSPGPITDSGYIMAYFKQAPGEYGLNLCYSTDGLHWRNINDGKPVLYAQMGTKGIRDPYIFRKQDGKFGIVATDMLGTNWGDTSQYIHYWESEDLINFTERLIKVHNKSNMHAWAPEVFYDENRKQYGIYWAGNTDYNRIYVNYTTDFDTVSDCQVFFDPGYDVIDAHIVSDKGMYYLFFKDERASGKAIKVARSSSLTPNSFTVFTPNFITSPNTEGPFVFKDNNSDSWYMYVDIYSNNGIFECWKTNDLNALSWTKVTGISVPPGVRHGSVVKVNRWELETAISRKVVTPPAPTPPPVLKGDVNADGVINSSDIMVLKRFLLRTITLTEEMLLNADTNGDGAVNSSDFTLLKRYILRSIDSFPV”, “failed”.
On to “MNNPKPCEWKSNELSRGYIADYKAFNFVDGEGVRCSLYVSGCPFHCEGCYNKAAQSFKYGKPYTKELEDDILKDIGHESVQGLTLLGGEPFLNTATCLSVVKRIRATYGKTKDIWSWTGYTWDEMMQETTDKLELLSLIDVLVDGRFEQKLFDPNLAFRGSSNQRIIDVQKSLAADEVVLYELLEHHHHHH”, for which the protein production result is listed as “not failed”.
On to “MNNTNPLVSIIVPVYKVERYIHRSIDSLLRQTYNNLEIILVDDGSPDNCPFICDKYAMQDNRIRVIHKSNGGLSDARNAALNVMTGQYVTFVDSDDYIADNMIEKFIETVKLYQCNMVVAGMNIIDKNNQIYDYRRTLTSTLSTGIDITRKLLKDVFPFNFVCAKIFESSLFEEIRFPVGRHYEDTATTYKLTHKCERIYCIADCLYFYELEREGNITSELNTSKAIKSYIDGCLNSREQIFFCQKHKDFSDLLPVLTKRLQLWALLAIQSAISLGYKEYMFYYHQIRIYIRSLSYTQRMTHLQIALTFPIIYYSLYPLLSRLKKMYKN”, for which the protein production entry was “failed”.
For the sequence “MNNTQKKLKVLFIGESWHIHMIHSKGYDSFTSSKYEEGATWLLECLRKGGVDIDYMPAHTVQIAFPESIDELNRYDVIVISDIGSNTFLLQNETFYQLKIKPNALESIKEYVKNGGGLLMIGGYLSFMGIEAKANYKNTVLAEVLPVIMLDGDDRVEKPEGICAEAVSPEHPVVNGFSDYPVFLGYNQAVARDDADVVLTINNDPLLVFGEYQQGKTACFMSDCSPHWGTQQFMSWPFYTDLWVNTLQFIARK”, the protein production entry is on record as “not failed”.
As to “MNNTQQFSLSMRLFHWAMAALVISMLAAGLLMVRSLEPWQLSILTVHKAFGVVAAALVIARLMNRLFHQIPALPGDLSSLQTFVAKASHWLLYLLLFAMPISGYLMQYFAGRPIDVFGWFRLPSALTVNIENYAIFRELHGWLAIALMALVALHVAAALHHHFIRKDTVLKSML”, the protein production entry is “failed”.
